Measured values reported in patent publication EP1644414B1.

Biological target: UV-inactivated SARS-CoV preparation (Frankfurt 1 strain) (SARS-CoV strain Frankfurt 1)
Assay: phage ELISA, plate 2 (no phage 0.211)

B1: SC03-026 (scFv)
scFv: AMAQVQLVQSGGGLVQPGGSLRLSCAASGFTFSSYAMHWVRQAPGKGLEYVSGISSNGGSTYYANSVKGRFTISRDNSKNTLYLQMGSLRAEDMAVYYCARTTNRAFDIWGQGTMVTVSSGTGGSGGTGSGTGGSTDIQMTQSPDSLAVSLGERATINCKSSQSILYSSNSKNYLGWYQQKPGQPPKLLIYWASTRESGVPDRFSGSGSGTDFTLTISSLQAEDVAVYYCQQYYSTPYSFGQGTKVEIKRAA
  OD492nm: 1.07 OD492nm
